This note sets out measurements from patent publication US20230044278A1 (DYNE THERAPEUTICS, published 2023).

Assay [1] concerns the target T1, recombinant cynomolgus monkey (Macaca fascicularis) transferrin receptor 1 (cynomolgus monkey (Macaca fascicularis), UniProt Q5RDH6 87-760 (Pongo abelii entry), limits assumed).
T1 construct: also called cTfR1; cyno TfR1
T1 chain: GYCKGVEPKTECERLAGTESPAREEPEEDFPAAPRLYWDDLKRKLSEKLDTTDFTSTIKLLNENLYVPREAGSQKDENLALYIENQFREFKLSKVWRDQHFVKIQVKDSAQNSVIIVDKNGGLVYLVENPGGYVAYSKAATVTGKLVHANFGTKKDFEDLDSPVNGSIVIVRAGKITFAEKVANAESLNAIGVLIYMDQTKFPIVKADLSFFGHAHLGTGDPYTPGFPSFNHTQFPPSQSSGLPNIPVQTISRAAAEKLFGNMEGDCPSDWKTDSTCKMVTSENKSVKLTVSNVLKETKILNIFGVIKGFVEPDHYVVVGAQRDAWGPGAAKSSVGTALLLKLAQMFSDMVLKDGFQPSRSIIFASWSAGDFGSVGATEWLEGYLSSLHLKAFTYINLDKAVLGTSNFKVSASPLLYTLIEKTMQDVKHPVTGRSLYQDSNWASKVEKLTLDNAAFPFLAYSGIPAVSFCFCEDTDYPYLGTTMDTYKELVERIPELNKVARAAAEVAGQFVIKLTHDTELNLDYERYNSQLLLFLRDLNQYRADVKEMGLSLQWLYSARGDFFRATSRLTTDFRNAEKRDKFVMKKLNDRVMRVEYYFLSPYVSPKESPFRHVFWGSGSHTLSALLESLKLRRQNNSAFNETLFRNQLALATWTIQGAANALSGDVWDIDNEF
Nature of the assay: ELISA, Fab-ASO300 conjugate; printed as 'DMPK oligo conjugate binding to cyno TfR1 (nM)'.

For assay [2], the target named is T2, recombinant human transferrin receptor 1 (human, UniProt P02786 89-760).
T2 construct: also called hTfR1; huTfR1
The experiment in a line: ELISA, Fab-ASO300 conjugate; printed as 'DMPK oligo conjugate binding to hTfR1 (nM)'; Table 9 (thermal stability table); DMPK oligo conjugate, hTfR1.

B1: 5H12 (VH5-C33Y/Vk4) Fab conjugated to DMPK-targeting oligonucleotide ASO300 (Fab, V domains shown)
VH: QVQLVQSGAEVKKPGASVKVSCKASGYSFTDYYINWVRQAPGQGLEWMGWIYPGSGNTRYSERFKGRVTITRDTSASTAYMELSSLRSEDTAVYYCAREDYYPYHGMDYWGQGTLVTVSS
VL: DIVMTQSPDSLAVSLGERATINCRASESVDGYDNSFMHWYQQKPGQPPKLLIFRASNLESGVPDRFSGSGSGTDFTLTISSLQAEDVAVYYCQQSSEDPWTFGQGTKLEIKR
modifications: ASO300 oligonucleotide covalently conjugated via linker of Formula (C); residue and chain not stated
notes: also called DMPK oligo conjugate
Consider B1, for which the EC50 in assay [1] and in assay [2] was 13.9 nM throughout.
